We go through four molecules from paper PMC3642082 (PLoS Pathogens, 2013).

In assay [1] the target is T1, JRFL gp120 monomer expressed in HEK 293S cells (HIV-1 clade B, isolate JR-FL, UniProt Q75760, strain).
T1 construct: also called gp120 with immature oligomannose glycans
The assay can be described thus: ITC. The settings on record: both partners purified.

A further assay concerns the target T2, soluble CD4 (UniProt P01730).
T2 construct: also called sCD4
Briefly: ITC. The settings on record: both partners purified.

B1: PGT122 Fab (Fab, V domains shown)
VH: QVHLQESGPGLVKPSETLSLTCNVSGTLVRDNYWSWIRQPLGKQPEWIGYVHDSGDTNYNPSLKSRVHLSLDKSKNLVSLRLTGVTAADSAIYYCATTKHGRRIYGVVAFKEWFTYFYMDVWGKGTSVTVSS
VL: VSVAPGQTARITCGEESLGSRSVIWYQQRPGQAPSLIIYNNNDRPSGIPDRFSGSPGSTFGTTATLTITSVEAGDEADYYCHIWDSRRPTNWVFGEGTTLIVL
For B1, in assay [1], the binding result is recorded as “binds”.

B2: JRFL gp120 monomer (near full-length gp120 monomeric construct) (natural protein)
chain: not shown
notes: also called monomeric gp120
By Kd is commonly meant a measure of binding affinity in units of concentration. The molecule B2 had a Kd with soluble CD4 of 21 nM.

B3: PGT121 Fab (Fab, V domains shown)
VH: QMQLQESGPGLVKPSETLSLTCSVSGASISDSYWSWIRRSPGKGLEWIGYVHKSGDTNYSPSLKSRVNLSLDTSKNQVSLSLVAATAADSGKYYCARTLHGRRIYGIVAFNEWFTYFYMDVWGNGTQVTVSS
VL: DISVAPGETARISCGEKSLGSRAVQWYQHRAGQAPSLIIYNNQDRPSGIPERFSGSPDSPFGTTATLTITSVEAGDEADYYCHIWDSRVPTKWVFGGGTTLTVL
In the case of B3, the binding result in assay [1] is recorded as “binds”.

B4: PGT123 Fab (Fab, V domains shown)
VH: QLHLQESGPGLVKPPETLSLTCSVSGASINDAYWSWIRQSPGKRPEWVGYVHHSGDTNYNPSLKRRVTFSLDTAKNEVSLKLVDLTAADSATYFCARALHGKRIYGIVALGELFTYFYMDVWGKGTAVTVSS
VL: SSMSVSPGETAKISCGKESIGSRAVQWYQQKPGQPPSLIIYNNQDRPAGVPERFSASPDFRPGTTATLTITNVDAEDEADYYCHIYDARGGTNWVFDRGTTLTVL
Take B4: in assay [1], the binding result was “binds”.
